From patent US20260256782

Test system: ZF3-KRAB (MR-32054 bicistronic component) (synthetic construct)
Assay: cell_activity
Settings: 48 h, 0.5 ug/ml, combined effect with ZF9-MQ1, binding not measured directly

Chain of ZF3-KRAB (MR-32054 bicistronic component) (synthetic construct) (chain, as listed by the source): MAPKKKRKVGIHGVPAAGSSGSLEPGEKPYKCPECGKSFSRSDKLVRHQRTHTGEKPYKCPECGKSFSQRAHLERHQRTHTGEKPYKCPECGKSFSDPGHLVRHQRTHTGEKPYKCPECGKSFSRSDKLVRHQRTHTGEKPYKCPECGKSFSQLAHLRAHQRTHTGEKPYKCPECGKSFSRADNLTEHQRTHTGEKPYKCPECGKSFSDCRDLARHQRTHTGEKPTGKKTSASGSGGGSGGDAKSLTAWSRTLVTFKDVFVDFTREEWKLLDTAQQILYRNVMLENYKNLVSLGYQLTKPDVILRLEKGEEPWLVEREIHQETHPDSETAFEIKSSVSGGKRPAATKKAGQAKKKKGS

Substance: MYC upstream anchor (CTCF) ZF3 target site
- activity (% MYC protein reduction) (H1975 cells): 30
- activity (% MYC protein reduction) (PC9 cells): 47
